Molecular target: T1, GST-DLA88-α3 (dog, UniProt P18466 207-299)
T1 construct: also called recombinant protein containing only α3 domain of DLA88; not shown: glutathione S-transferase (GST) tag of expression vector pGEX-6p-1
Assay: biolayer interferometry (BLItz); GST-DLA88-α3 immobilised on anti-GST sensor, GST-LILRB3 D1/D2 loaded as sample
Description: The recombinant proteins DLA88-α3 and LILRB3-D1/D2 used in (b) were separately incubated at 37° C. for 2 hr, and immobilized on the BLI sensor for 5 min using DLA88-α3 as a ligand. LILRB3-D1/2D was loaded as a sample at the indicated concentrations.
BLItz™ ([…]) was used to analyze the dynamics between DLA88-α3 and LILRB3-D1/D2. A GST sensor and an anti-GST antibody-immobilized sensor ([…]) were used. GST-DLA88-α3 and GST-LILRB3-D1/D2 were separately incubated at 37° C. for 2 hr. GST-DLA88-α3 was immobilized on the GST sensor as a ligand molecule for 5 min and completely covered with the GST sensor. After washing with PBS-T (5% Tween-PBS) for 30 sec, GST-LILRB3 D1/D2 was loaded as a sample while trembling for 2 min. In addition to association kinetics, dissociation kinetics was evaluated in PBS-T buffer for 2 min. The recombinant protein GST-GFP was used as a control.

T1 sequence (P18466 other isoform, or with tags, fused parts or gaps): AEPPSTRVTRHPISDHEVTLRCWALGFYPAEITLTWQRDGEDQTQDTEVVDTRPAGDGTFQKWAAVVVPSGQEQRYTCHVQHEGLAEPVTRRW

Kd: 6.54 µM
B1: GST-LILRB3-D1/D2 (receptor)
chain: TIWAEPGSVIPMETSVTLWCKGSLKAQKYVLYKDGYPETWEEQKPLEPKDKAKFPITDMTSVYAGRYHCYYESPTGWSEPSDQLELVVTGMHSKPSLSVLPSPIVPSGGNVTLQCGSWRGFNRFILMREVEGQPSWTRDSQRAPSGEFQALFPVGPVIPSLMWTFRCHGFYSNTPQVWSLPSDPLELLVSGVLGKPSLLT
notes: also called LILRB3-D1/2D; not shown: glutathione S-transferase (GST) tag of expression vector pGEX-6p-1

— patent publication US20220233638A1 (WASEDA UNIVERSITY, published 2022)
